Data on 8 substances can be found in publication PMC8967028.

Common to all, as to assay: SPR; Biacore T200; […], single cycle kinetics, […]; 25°C; PBS, 0.05% Tween 20, 3.4 mM EDTA; 1:1 binding model; triplicate; […]
(Surface plasmon resonance follows binding to a sensor surface in real time, without labels.)

The target of assay [1] is SARS-CoV-2 B.1.351 (Beta) spike (S) receptor binding domain (SARS-CoV-2).
Assay [2] addresses SARS-CoV-2 B.1.617.2 (Delta) spike (S) receptor binding domain (SARS-CoV-2).
Assay [3] concerns the target SARS-CoV-2 B.1.1.529 (Omicron) spike (S) receptor binding domain (SARS-CoV-2).

Broadly, the koff is the rate constant with which the complex falls apart. Higher therefore signals fast dissociation. With VHH-72-Fc S56M (Fc fusion), the results for the koff in assay [1] and in assay [2] were 0.013 s⁻¹ and 0.001 s⁻¹, respectively.
On to VHH-72-Fc S56M,L97W,T99V (Fc fusion), for which the off-rate constant (koff) in assay [1] amounted to 0.00039 s⁻¹; in assay [2] it was 0.00023 s⁻¹; in assay [3] it was 0.007 s⁻¹.
With VHH-72-Fc L97W,T99V (Fc fusion), the koff is 0.00056 s⁻¹ in assay [1], 0.00016 s⁻¹ in assay [2] and 0.061 s⁻¹ in assay [3].
parental VHH-72-Fc (Fc fusion): the values for the koff in assay [1] and in assay [2] were 0.029 s⁻¹ and 0.0051 s⁻¹, respectively.
For the substance VHH-72-Fc S56M,T99V (Fc fusion), the koff amounted to 0.00068 s⁻¹ in assay [1], 0.00035 s⁻¹ in assay [2] and 0.0252 s⁻¹ in assay [3].
In the same order, the values of VHH-72-Fc S56M,L97W (Fc fusion) are 0.0025 s⁻¹, 0.00039 s⁻¹ and 0.7 s⁻¹.
Take VHH-72-Fc T99V (Fc fusion): the dissociation rate constant (koff) was 0.0077 s⁻¹ in assay [1] and 0.00062 s⁻¹ in assay [2].
As for VHH-72-Fc L97W (Fc fusion), the results for the koff in assay [1] and in assay [2] were 0.0079 s⁻¹ and 0.00081 s⁻¹, respectively.
